Laboratory results taken from the supplement of paper PMC10126150.
± gives the standard deviation of the averaged measurements.

Tested on: ATP
Assay: switch fluorescence ratio, 500 uM ATP over buffer (Cy3 cluster intensity, sum of 5 cycles each) (fold (ratio)); higher = stronger signal-on switching upon ATP binding; sequences stand for … in TCGTCGGCAGCGTCAGATGTGTATAAGAGACAGTTTTTTTTTTTTTTTTTTTTTTTTT…TC
Details: aptamer strand: ATP DNA aptamer (quencher-CACCTGGGGGAGTATTGCGGAGGAAGG + anchor), 100 nM annealed; ATP concentration: 500 uM
Method in brief: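 Clusters carrying Cy3-labelled switching strands on a modified Illumina MiSeq flow-cell were annealed to 100 nM quencher-labelled ATP aptamer and imaged in selection buffer. They were imaged again after 15 min with 500 uM ATP at 22 °C, over five buffer/ATP cycles with NaOH stripping and re-annealing in between. For each cluster, the fluorescence ratio is the summed Cy3 intensity of the target cycles divided by that of the buffer cycles, averaged per switch-domain sequence. Clusters outside 100-1000 RFU were left out.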
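Also: ATP exposure 15 min at 22 °C before imaging.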

Sequence | switch fluorescence ratio
TTCGGCTTGA | 0.994 ± 0.028
TTCGGGAATA | 1.03 ± 0.022
TTCGGGAGAA | 1.01 ± 0.052
TTCGGGAGGG | 0.973 ± 0.029
TTCGGGCATT | 0.989 ± 0.046
TTCGGGGCGG | 0.934 ± 0.071
TTCGGGGGGT | 1.02 ± 0.051
TTCGGGGGTA | 0.97 ± 0.023
TTCGGGTAAT | 1.08 ± 0.11
TTCGGGTCGC | 0.963 ± 0.049
TTCGGGTGGA | 1.02 ± 0.046
TTCGGGTTAT | 1.01 ± 0.049
TTCGGGTTTC | 1.04 ± 0.058
TTCGGTAAAT | 1.03 ± 0.033
TTCGGTATAG | 1 ± 0.025
TTCGGTGACC | 1.02 ± 0.014
TTCGTAATCG | 1.07 ± 0.093
TTCGTACAT | 1.13 ± 0.22
TTCGTACGTC | 1.01 ± 0.029
TTCGTATTTC | 1.06 ± 0.083
TTCGTCATTT | 0.983 ± 0.034
TTCGTGACCC | 1.019 ± 0.0043
TTCGTGCGAT | 1.04 ± 0.013
TTCGTGCGGC | 1.06 ± 0.042
TTCGTGTCCC | 0.994 ± 0.019

Sequence | switch fluorescence ratio
TTCGTGTGGT | 1 ± 0.019
TTCGTGTTTT | 1.04 ± 0.059
TTCGTTAGAG | 0.9796 ± 0.0014
TTCGTTGGAC | 1.01 ± 0.012
TTCGTTGGGT | 0.986 ± 0.016
TTCGTTTTGC | 0.999 ± 0.035
TTCTAACCCC | 1.12 ± 0.012
TTCTACCAGC | 1.01 ± 0.011
TTCTAGGGCA | 1.02 ± 0.038
TTCTAGTGGG | 1 ± 0.033
TTCTATACAT | 1.04 ± 0.054
TTCTATCGTT | 1.01 ± 0.031
TTCTATGTTA | 0.997 ± 0.014
TTCTATTTTT | 1.03 ± 0.024
TTCTCCTTTT | 1.01 ± 0.021
TTCTCGCCAA | 1.08 ± 0.022
TTCTCGGCTA | 1.56 ± 0.61
TTCTCGGGGA | 0.9908 ± 0.0097
TTCTCGGGGG | 1.04 ± 0.043
TTCTCGTCTT | 1.04 ± 0.036
TTCTCTAGGG | 0.99 ± 0.0049
TTCTGAAAAC | 1.0127 ± 0.00023
TTCTGAGGTG | 1.074 ± 0.0026
TTCTGAGTCT | 1.02 ± 0.041
TTCTGATGGA | 0.978 ± 0.036

Sequence | switch fluorescence ratio
TTCTGGATTA | 0.994 ± 0.036
TTCTGGCTTT | 1.16 ± 0.25
TTCTGGGGGT | 0.999 ± 0.051
TTCTGGGTTT | 1.01 ± 0.025
TTCTGGTGCA | 1.02 ± 0.047
TTCTGTGGGG | 1.01 ± 0.017
TTCTGTTTCC | 1.12 ± 0.13
TTCTTAAAAG | 1.02 ± 0.028
TTCTTAATGC | 0.985 ± 0.024
TTCTTAGTGT | 0.97 ± 0.027
TTCTTCGTTA | 1.03 ± 0.019
TTCTTGGGTT | 0.989 ± 0.031
TTCTTGTTTT | 1.01 ± 0.016
TTCTTTAAAC | 0.992 ± 0.033
TTCTTTAGAA | 1.03 ± 0.046
TTCTTTATCG | 1.02 ± 0.073
TTCTTTCGTC | 0.979 ± 0.021
TTCTTTGGGA | 1.02 ± 0.028
TTCTTTTAGG | 0.996 ± 0.03
TTCTTTTATC | 0.983 ± 0.03
TTCTTTTGGG | 0.987 ± 0.039
TTGAAAGTAT | 1.03 ± 0.048
TTGAAAGTGA | 1.13 ± 0.25
TTGAAAGTTT | 1.01 ± 0.026
TTGAAATCGA | 1.01 ± 0.03

Sequence | switch fluorescence ratio
TTGAAATTTG | 1 ± 0.011
TTGAACCTTT | 1.02 ± 0.012
TTGAAGTCGT | 0.988 ± 0.02
TTGAAGTGGG | 1.03 ± 0.014
TTGAATAAAA | 1.005 ± 0.0096
TTGAATACAC | 1.11 ± 0.17
TTGAATAGTT | 0.998 ± 0.017
TTGAATATGG | 1.01 ± 0.021
TTGAATCGAC | 1.08 ± 0.042
TTGACCTGTG | 1.02 ± 0.013
TTGACGAATC | 1.067 ± 0.002
TTGACTAT | 1.005 ± 0.0027
TTGACTTTGA | 1.02 ± 0.016
TTGAGAGGGG | 0.981 ± 0.021
TTGAGAGGGT | 0.9859 ± 0.0089
TTGAGCCTGT | 0.977 ± 0.028
TTGAGCTTAT | 0.993 ± 0.018
TTGAGGACGG | 1.03 ± 0.016
TTGAGGCAGT | 1.54 ± 0.55
TTGAGGCCGG | 1.038 ± 0.0038
TTGAGGCGGG | 0.993 ± 0.045
TTGAGGGAGG | 1 ± 0.034
TTGAGGGATG | 0.992 ± 0.013
TTGAGGGGGT | 1.05 ± 0.16
TTGAGGGGTA | 1.01 ± 0.021

Sequence | switch fluorescence ratio
TTGAGGGGTT | 0.979 ± 0.0086
TTGAGGTGCA | 0.992 ± 0.025
TTGAGGTGGG | 1.23 ± 0.41
TTGAGGTTCG | 1.05 ± 0.14
TTGAGGTTGA | 0.994 ± 0.029
TTGAGTATTT | 0.98182 ± 0.00089
TTGAGTCCGT | 1.05 ± 0.075
TTGAGTCGGA | 1.42 ± 0.7
TTGAGTGAAT | 1 ± 0.042
TTGAGTGTTA | 1.01 ± 0.011
TTGAGTGTTT | 1.02 ± 0.017
TTGAGTTGTT | 1.02 ± 0.082
TTGAGTTTTT | 0.987 ± 0.024
TTGATACCTA | 1.04 ± 0.038
TTGATAGGTC | 1.01 ± 0.04
TTGATCTT | 1.008 ± 0.0042
TTGATCTTAG | 1.02 ± 0.018
TTGATCTTGG | 1.04 ± 0.013
TTGATGCGTG | 0.9661 ± 0.0063
TTGATGGGGT | 1.03 ± 0.1
TTGATGGTCA | 0.943 ± 0.041
TTGATGTAAA | 0.997 ± 0.033
TTGATTAGAT | 1.014 ± 0.0016
TTGATTGGTC | 1.05 ± 0.019
TTGATTGTGG | 1.03 ± 0.059

Sequence | switch fluorescence ratio
TTGATTGTTG | 0.982 ± 0.013
TTGATTTCGA | 1.06 ± 0.019
TTGATTTTCA | 0.999 ± 0.015
TTGCAAAAAT | 1 ± 0.046
TTGCAAGTTT | 0.9811 ± 0.00083
TTGCACACGC | 1.26 ± 0.08
TTGCACGGGC | 1.007 ± 0.0052
TTGCACTAAC | 1.22 ± 0.05
TTGCAGCTTA | 1.05 ± 0.035
TTGCAGGGGG | 0.998 ± 0.027
TTGCAGGTTT | 1.11 ± 0.18
TTGCATCGGG | 0.9891 ± 0.0034
TTGCATGAGG | 1.01 ± 0.078
TTGCATGGAA | 1.01 ± 0.0049
TTGCCATGTT | 0.978 ± 0.036
TTGCCCCGGC | 1.04 ± 0.016
TTGCCCGAA | 1.01 ± 0.043
TTGCCGCAGC | 1.49 ± 0.054
TTGCCGGGGC | 0.998 ± 0.017
TTGCCGTGTT | 1.02 ± 0.016
TTGCCTGTG | 1.03 ± 0.033
TTGCGACGGT | 1.02 ± 0.023
TTGCGAGGGC | 1 ± 0.028
TTGCGATTTT | 0.993 ± 0.028
TTGCGCAATT | 1.51 ± 0.47

Sequence | switch fluorescence ratio
TTGCGCCTTT | 1.03 ± 0.0099
TTGCGGACCA | 0.996 ± 0.043
TTGCGGGGG | 1.01 ± 0.017
TTGCGGGGGT | 1 ± 0.054
TTGCGGTGCG | 1.01 ± 0.062
TTGCGTAGCA | 0.977 ± 0.02
TTGCGTAGGC | 0.994 ± 0.034
TTGCGTAGTT | 1.01 ± 0.029
TTGCGTGTTG | 1.01 ± 0.019
TTGCGTTGTT | 0.9695 ± 0.0043
TTGCTAAAAA | 1.04 ± 0.03
TTGCTAAAGG | 0.964 ± 0.016
TTGCTAAATG | 1 ± 0.013
TTGCTAAGCG | 1.02 ± 0.012
TTGCTACCAC | 1.07 ± 0.036
TTGCTCATAT | 1.02 ± 0.049
TTGCTCCTTT | 1.02 ± 0.03
TTGCTCTTTG | 1.0058 ± 0.00073
TTGCTGAGAC | 1.24 ± 0.3
TTGCTGAGCC | 0.96 ± 0.024
TTGCTGGGAT | 1.02 ± 0.012
TTGCTGGTCA | 0.9897 ± 0.0042
TTGCTTGAGA | 0.996 ± 0.028
TTGGAAACAG | 1 ± 0.014
TTGGAAGAGT | 0.9941 ± 0.0083

Sequence | switch fluorescence ratio
TTGGAAGCTT | 1.23 ± 0.22
TTGGAAGGTT | 1.32 ± 0.42
TTGGAATTTT | 1.03 ± 0.031
TTGGACGGGA | 1.29 ± 0.47
TTGGACTAAG | 0.99 ± 0.044
TTGGAGCACT | 1.38 ± 0.075
TTGGAGGAAC | 1.07 ± 0.12
TTGGAGGTTC | 0.99 ± 0.063
TTGGAGTGCT | 1.04 ± 0.045
TTGGAGTGGG | 0.987 ± 0.051
TTGGATAGGG | 1.04 ± 0.067
TTGGATGAGC | 1.03 ± 0.07
TTGGATGGGT | 0.959 ± 0.05
TTGGATGTCT | 1.008 ± 0.0072
TTGGATTGGG | 1.02 ± 0.064
TTGGCACGAT | 1.012 ± 0.0011
TTGGCAGTCG | 0.998 ± 0.02
TTGGCAGTTA | 1.03 ± 0.061
TTGGCATGGC | 1.04 ± 0.026
TTGGCATGTC | 1.06 ± 0.041
TTGGCATTTA | 1.034 ± 0.0054
TTGGCCCCCA | 1.01 ± 0.017
TTGGCCGCGA | 2.1 ± 0.066
TTGGCCGTAC | 1.03 ± 0.029
TTGGCGGGCG | 0.979 ± 0.034
